This experiment addresses CX3CR1 (fractalkine receptor) (human) (UniProt P49238). In words: cell-based or functional assay.
UniProt P49238, sequence (P49238 whole entry): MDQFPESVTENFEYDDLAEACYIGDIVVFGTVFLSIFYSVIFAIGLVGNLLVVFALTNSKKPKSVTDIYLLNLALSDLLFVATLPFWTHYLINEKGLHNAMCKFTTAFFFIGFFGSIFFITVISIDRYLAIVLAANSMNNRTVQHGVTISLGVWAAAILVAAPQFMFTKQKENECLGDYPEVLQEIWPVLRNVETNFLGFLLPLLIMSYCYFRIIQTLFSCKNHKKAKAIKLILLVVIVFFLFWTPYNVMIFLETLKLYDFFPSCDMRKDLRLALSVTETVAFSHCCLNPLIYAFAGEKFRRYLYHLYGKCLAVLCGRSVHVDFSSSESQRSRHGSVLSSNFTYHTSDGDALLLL

For “RSV A2 strain G-protein (surface attachment glycoprotein) (from UniProt P03423 1-298) (ligand)”, the viral load was determined as 2.3 fold.
